Literature values in patent publication US20050107320A1, “Methods and compositions for use in interventional pharmacogenomics” (priority 2003, published 2005).

Columns and labels:
[1] = administered systemically

EPO: glycoprotein hormone involved in the growth and maturation of erythroid progenitor cells into erythrocytes
crossing of the blood-brain barrier [1]: can cross the blood-brain barrier | clinical tolerability: well tolerated clinically
